Data set [1] relates to HeLa Kyoto. Kind of data set: solubility change mitosis vs G1/S (difference of NP-40 vs SDS log2 ratios) (log2 ratio difference); higher = more soluble in mitosis.
Data set [2] has as its system HeLa Kyoto. The experiment in a line: solubility in G1/S (NP-40 vs SDS abundance) (log2 ratio); higher = more soluble. The settings on record: cell cycle stage: G1/S.
The subject of data set [3] is HeLa Kyoto. Kind of data set: thermal stability score vs G1/S (z-score of summed log2 fold changes over temperatures); higher = more thermally stable than in G1/S.
Data set [4] deals with HeLa Kyoto. Kind of data set: melting temperature (median over replicates), in situ; higher = more thermally stable.
Setting [5] is: cell cycle stage: early G1 (4.5 h after nocodazole release).
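Throughout, for melting temperature (median over replicates), in situ: HeLa Kyoto cells synchronized by double thymidine or nocodazole block, proteins quantified by TMT10plex mass spectrometry, three independent biological replicates.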
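Throughout, for solubility change mitosis vs G1/S (difference of NP-40 vs SDS log2 ratios): synchronized HeLa Kyoto cells (double thymidine block for G1/S, nocodazole release for mitosis), protein amounts in NP-40 versus SDS lysates quantified by mass spectrometry, three biological replicates.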
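Throughout, for solubility in G1/S (NP-40 vs SDS abundance): HeLa Kyoto cells arrested at G1/S by double thymidine block, proteins quantified by TMT10plex mass spectrometry in mild NP-40 versus SDS extracts, three biological replicates.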
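Throughout, for thermal stability score vs G1/S (z-score of summed log2 fold changes over temperatures): synchronized HeLa Kyoto cells, proteins quantified by TMT10plex mass spectrometry, three biological replicates, mitosis taken 0.5 h after nocodazole release, G1/S directly after double thymidine block.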

Consider “MAAVRGLRVSVKAEAPAGPALGLPSPEAESGVDRGEPEPMEVEEGELEIVPVRRSLKELIPDTSRRYENKAGSFITGIDVTSKEAIEKKEQRAKRFHFRSEVNLAQRNVALDRDMMKKAIPKVRLETIYICGVDEMSTQDVFSYFKEYPPAHIEWLDDTSCNVVWLDEMTATRALINMSSLPAQDKIRSRDASEDKSAEKRKKDKQEDSSDDDEAEEGEVEDENSSDVELDTLSQVEEESLLRNDLRPANKLAKGNRLFMRFATKDDKKELGAARRSQYYMKYGNPNYGGMKGILSNSWKRRYHSRRIQRDVIKKRALIGDDVGLTSYKHRHSGLVNVPEEPIEEEEEEEEEEEEEEEEDQDMDADDRVVVEYHEELPALKQPRERSASRRSSASSSDSDEMDYDLELKMISTPSPKKSMKMTMYADEVESQLKNIRNSMRADSVSSSNIKNRIGNKLPPEKFADVRHLLDEKRQHSRPRPPVSSTKSDIRQRLGKRPHSPEKAFSSNPVVRREPSSDVHSRLGVPRQDSKGLYADTREKKSGNLWTRLGSAPKTKEKNTKKVDHRAPGAEEDDSELQRAWGALIKEKEQSRQKKSRLDNLPSLQIEVSRESSSGSEAES [NCBP3]”, for which the “solubility change mitosis (log2)” value with HeLa Kyoto [1] was found to be 0.394. Further, the “solubility in G1/S (log2)” value in the data set with HeLa Kyoto [2] is -0.537. Further, the results for the thermal stability score in the data set on HeLa Kyoto [3] (setting [5]) and in the data set on HeLa Kyoto [3] (cell cycle stage: mitosis) were 1.38 and 2.56, respectively. In addition, the values for the melting temperature in the data set on HeLa Kyoto [4] (cell cycle stage: G1/S) and with HeLa Kyoto [4] (cell cycle stage: mitosis) were 45.6 °C and 49.4 °C, respectively.

“MAAVSVYAPPVGGFSFDNCRRNAVLEADFAKRGYKLPKVRKTGTTIAGVVYKDGIVLGADTRATEGMVVADKNCSKIHFISPNIYCCGAGTAADTDMTTQLISSNLELHSLSTGRLPRVVTANRMLKQMLFRYQGYIGAALVLGGVDVTGPHLYSIYPHGSTDKLPYVTMGSGSLAAMAVFEDKFRPDMEEEEAKNLVSEAIAAGIFNDLGSGSNIDLCVISKNKLDFLRPYTVPNKKGTRLGRYRCEKGTTAVLTEKITPLEIEVLEETVQTMDTS [PSMB7]”: the “solubility change mitosis (log2)” value in the data set on HeLa Kyoto [1] is -0.192. In addition, the “solubility in G1/S (log2)” value in the data set with HeLa Kyoto [2] is 0.376. The thermal stability score with HeLa Kyoto [3] (setting [5]) was -1.21; with HeLa Kyoto [3] (cell cycle stage: mitosis) it was -2.39. Moreover, the melting temperature in the data set with HeLa Kyoto [4] (cell cycle stage: G1/S) worked out at 60.7 °C; in the data set on HeLa Kyoto [4] (cell cycle stage: mitosis), 64.5 °C.

Turning to “MAAVVALSLRRRLPATTLGGACLQASRGAQTAAATAPRIKKFAIYRWDPDKAGDKPHMQTYEVDLNKCGPMVLDALIKIKNEVDSTLTFRRSCREGICGSCAMNINGGNTLACTRRIDTNLNKVSKIYPLPHMYVIKDLVPDLSNFYAQYKSIEPYLKKKDESQEGKQQYLQSIEEREKLDGLYECILCACCSTSCPSYWWNGDKYLGPAVLMQAYRWMIDSRDDFTEERLAKLQDPFSLYRCHTIMNCTRTCPKGLNPGKAIAEIKKMMATYKEKKASV [SDHB]”, the “solubility change mitosis (log2)” value in the data set on HeLa Kyoto [1] was -0.00338. Further, the “solubility in G1/S (log2)” value in the data set with HeLa Kyoto [2] is 0.659. For the same sequence, the results for the thermal stability score with HeLa Kyoto [3] (setting [5]) and with HeLa Kyoto [3] (cell cycle stage: mitosis) were -1.86 and -2.8, respectively. Moreover, the results for the melting temperature in the data set on HeLa Kyoto [4] (cell cycle stage: G1/S) and in the data set with HeLa Kyoto [4] (cell cycle stage: mitosis) were 54.7 °C and 56.3 °C, respectively.

Regarding “MAAVVLAATRLLRGSGSWGCSRLRFGPPAYRRFSSGGAYPNIPLSSPLPGVPKPVFATVDGQEKFETKVTTLDNGLRVASQNKFGQFCTVGILINSGSRYEAKYLSGIAHFLEKLAFSSTARFDSKDEILLTLEKHGGICDCQTSRDTTMYAVSADSKGLDTVVALLADVVLQPRLTDEEVEMTRMAVQFELEDLNLRPDPEPLLTEMIHEAAYRENTVGLHRFCPTENVAKINREVLHSYLRNYYTPDRMVLAGVGVEHEHLVDCARKYLLGVQPAWGSAEAVDIDRSVAQYTGGIAKLERDMSNVSLGPTPIPELTHIMVGLESCSFLEEDFIPFAVLNMMMGGGGSFSAGGPGKGMFSRLYLNVLNRHHWMYNATSYHHSYEDTGLLCIHASADPRQVREMVEIITKEFILMGGTVDTVELERAKTQLTSMLMMNLESRPVIFEDVGRQVLATRSRKLPHELCTLIRNVKPEDVKRVASKMLRGKPAVAALGDLTDLPTYEHIQTALSSKDGRLPRTYRLFR [PMPCA]”, the “solubility change mitosis (log2)” value with HeLa Kyoto [1] was -0.174. Besides, the “solubility in G1/S (log2)” value in the data set with HeLa Kyoto [2] was -0.0271. Also, the results for the thermal stability score with HeLa Kyoto [3] (setting [5]) and in the data set on HeLa Kyoto [3] (cell cycle stage: mitosis) were 0.057 and -1.17, respectively. Further, the melting temperature with HeLa Kyoto [4] (cell cycle stage: G1/S) was found to be 52.2 °C; in the data set on HeLa Kyoto [4] (cell cycle stage: mitosis), 51.8 °C.

On to “MACLLETPIRMSVLSEVTASSRHYVDRLFDPDPQKVLQGVIDMKNAVIGNNKQKANLIVLGAVPRLLYLLQQETSSTELKTECAVVLGSLAMGTENNVKSLLDCHIIPALLQGLLSPDLKFIEACLRCLRTIFTSPVTPEELLYTDATVIPHLMALLSRSRYTQEYICQIFSHCCKGPDHQTILFNHGAVQNIAHLLTSLSYKVRMQALKCFSVLAFENPQVSMTLVNVLVDGELLPQIFVKMLQRDKPIEMQLTSAKCLTYMCRAGAIRTDDNCIVLKTLPCLVRMCSKERLLEERVEGAETLAYLIEPDVELQRIASITDHLIAMLADYFKYPSSVSAITDIKRLDHDLKHAHELRQAAFKLYASLGANDEDIRKKIIETENMMDRIVTGLSESSVKVRLAAVRCLHSLSRSVQQLRTSFQDHAVWKPLMKVLQNAPDEILVVASSMLCNLLLEFSPSKEPILESGAVELLCGLTQSENPALRVNGIWALMNMAFQAEQKIKADILRSLSTEQLFRLLSDSDLNVLMKTLGLLRNLLSTRPHIDKIMSTHGKQIMQAVTLILEGEHNIEVKEQTLCILANIADGTTAKDLIMTNDDILQKIKYYMGHSHVKLQLAAMFCISNLIWNEEEGSQERQDKLRDMGIVDILHKLSQSPDSNLCDKAKMALQQYLA [ARMC8]”, for which the “solubility change mitosis (log2)” value with HeLa Kyoto [1] was -0.195. Moreover, the “solubility in G1/S (log2)” value in the data set on HeLa Kyoto [2] is -0.0698. The thermal stability score is -0.497 with HeLa Kyoto [3] (setting [5]) and 0.122 in the data set on HeLa Kyoto [3] (cell cycle stage: mitosis). Moreover, the values for the melting temperature in the data set with HeLa Kyoto [4] (cell cycle stage: G1/S) and with HeLa Kyoto [4] (cell cycle stage: mitosis) were 51.1 °C and 51 °C, respectively.

“MACPALGLEALQPLQPEPPPEPAFSEAQKWIEQVTGRSFGDKDFRTGLENGILLCELLNAIKPGLVKKINRLPTPIAGLDNIILFLRGCKELGLKESQLFDPSDLQDTSNRVTVKSLDYSRKLKNVLVTIYWLGKAANSCTSYSGTTLNLKEFEGLLAQMRKDTDDIESPKRSIRDSGYIDCWDSERSDSLSPPRHGRDDSFDSLDSFGSRSRQTPSPDVVLRGSSDGRGSDSESDLPHRKLPDVKKDDMSARRTSHGEPKSAVPFNQYLPNKSNQTAYVPAPLRKKKAEREEYRKSWSTATSPLGGERPFRYGPRTPVSDDAESTSMFDMRCEEEAAVQPHSRARQEQLQLINNQLREEDDKWQDDLARWKSRRRSVSQDLIKKEEERKKMEKLLAGEDGTSERRKSIKTYREIVQEKERRERELHEAYKNARSQEEAEGILQQYIERFTISEAVLERLEMPKILERSHSTEPNLSSFLNDPNPMKYLRQQSLPPPKFTATVETTIARASVLDTSMSAGSGSPSKTVTPKAVPMLTPKPYSQPKNSQDVLKTFKVDGKVSVNGETVHREEEKERECPTVAPAHSLTKSQMFEGVARVHGSPLELKQDNGSIEINIKKPNSVPQELAATTEKTEPNSQEDKNDGGKSRKGNIELASSEPQHFTTTVTRCSPTVAFVEFPSSPQLKNDVSEEKDQKKPENEMSGKVELVLSQKVVKPKSPEPEATLTFPFLDKMPEANQLHLPNLNSQVDSPSSEKSPVMTPQFKFWAWDPEEERRRQEKWQQEQERLLQERYQKEQDKLKEEWEKAQKEVEEEERRYYEEERKIIEDTVVPFTVSSSSADQLSTSSSMTEGSGTMNKIDLGNCQDEKQDRRWKKSFQGDDSDLLLKTRESDRLEEKGSLTEGALAHSGNPVSKGVHEDHQLDTEAGAPHCGTNPQLAQDPSQNQQTSNPTHSSEDVKPKTLPLDKSINHQIESPSERRKKSPREHFQAGPFSPCSPTPPGQSPNRSISGKKLCSSCGLPLGKGAAMIIETLNLYFHIQCFRCGICKGQLGDAVSGTDVRIRNGLLNCNDCYMRSRSAGQPTTL [LIMCH1]”: the “solubility change mitosis (log2)” value in the data set with HeLa Kyoto [1] is -0.237. For the same sequence, the “solubility in G1/S (log2)” value with HeLa Kyoto [2] is 0.188. Moreover, the thermal stability score in the data set with HeLa Kyoto [3] (setting [5]) was 4.62; in the data set with HeLa Kyoto [3] (cell cycle stage: mitosis) it was 6.09. Moreover, the melting temperature in the data set with HeLa Kyoto [4] (cell cycle stage: G1/S) was found to be 51.2 °C; in the data set on HeLa Kyoto [4] (cell cycle stage: mitosis), 52 °C.

“MADAAPQLGKRKRELDVEEAHAASTEEKEAGVGNGTCAPVRLPFSGFRLQKVLRESARDKIIFLHGKVNEASGDGDGEDAVVILEKTPFQVEQVAQLLTGSPELQLQFSNDIYSTYHLFPPRQLNDVKTTVVYPATEKHLQKYLRQDLRLIRETGDDYRNITLPHLESQSLSIQWVYNILDKKAEADRIVFENPDPSDGFVLIPDLKWNQQQLDDLYLIAICHRRGIRSLRDLTPEHLPLLRNILHQGQEAILQRYRMKGDHLRVYLHYLPSYYHLHVHFTALGFEAPGSGVERAHLLAEVIENLECDPRHYQQRTLTFALRADDPLLKLLQEAQQS [DCPS]”: in the data set on HeLa Kyoto [1], the “solubility change mitosis (log2)” value is -0.0249. Also, the “solubility in G1/S (log2)” value in the data set on HeLa Kyoto [2] stood at 0.263. Further, the thermal stability score in the data set on HeLa Kyoto [3] (setting [5]) is -0.562; with HeLa Kyoto [3] (cell cycle stage: mitosis) it was -3.36. For the same sequence, the melting temperature in the data set on HeLa Kyoto [4] (cell cycle stage: G1/S) was found to be 56.3 °C; with HeLa Kyoto [4] (cell cycle stage: mitosis), 55.7 °C.

For the origin of these results see the supplement of paper PMC5998384.
